Experimental data as given in patent publication US20070071744A1 (published 2007).

Target: T1, human glycoprotein VI (GPVI), native, on human platelets (human, UniProt Q9HCN6 21-339)
T1 sequence (looked up): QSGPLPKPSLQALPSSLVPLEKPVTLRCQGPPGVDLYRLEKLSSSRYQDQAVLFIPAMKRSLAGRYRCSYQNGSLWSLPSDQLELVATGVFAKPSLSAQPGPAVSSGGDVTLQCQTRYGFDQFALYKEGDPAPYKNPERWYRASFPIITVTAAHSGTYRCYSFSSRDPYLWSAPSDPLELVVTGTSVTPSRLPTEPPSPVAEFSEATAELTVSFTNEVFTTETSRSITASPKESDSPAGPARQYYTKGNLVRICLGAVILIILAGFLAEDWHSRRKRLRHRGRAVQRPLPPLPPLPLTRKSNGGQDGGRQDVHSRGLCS
Assay: cell-based or functional assay

IC50 of inhibition of collagen-induced (3 µg/ml) human platelet aggregation ex vivo: 120 ng/mL
B1: hGP 5C4 Fab (Fab, V domains shown)
VH: EVKLQESGGGLVQPGRSLKLSCTASGFTFSDYFMSWVRQAPTRGLEWVASISSGGASAYWRDSVKGRFTISRDNAKSALYLQMDSLRSEDTATYFCARGELDFDYWGQGVMVAVSS
VL: ADPNSTLLSASVGDRVTLNCTASQNVYKNLAWYQQKLGEAPRLLLYSANSQTGIPSRFSGSGSGPDFTLTISSLQPEDVASYFCQQYYSGNTFGAGTKLELKR
